Data reported in patent US20120071422A1 (MEDICAL DIAGNOSTIC LABORATORIES, published 2012).
One block for each binder: values may come before it.

B2: recombinant human IL-23 cytokine (p19 + p40) (ligand)
chain 1: RAVPGGSSPAWTQCQQLSQKLCTLAWSAHPLVGHMDLREEGDEETTNDVPHIQCGDGCDPQGLRDNSQFCLQRIHQGLIFYEKLLGSDIFTGEPSLLPDSPVGQLHASLLGLSQLLQPEGHHWETQQIPSLSPSQPWQRLLLRFKILRSLQAFVAVAARVFAHGAATLSP
chain 2: IWELKKDVYVVELDWYPDAPGEMVVLTCDTPEEDGITWTLDQSSEVLGSGKTLTIQVKEFGDAGQYTCHKGGEVLSHSLLLLHKKEDGIWSTDILKDQKEPKNKTFLRCEAKNYSGRFTCWWLTTISTDLTFSVKSSRGSSDPQGVTCGAATLSAERVRGDNKEYEYSVECQEDSACPAAEESLPIEVMVDAVHKLKYENYTSSFFIRDIIKPDPPKNLQLKPLKNSRQVEVSWEYPDTWSTPHSYFSLTFCVQVQGKSKREKKDRVFTDKTSATVICRKNASISVRAQDRYYSSSWSEWASVPCS
notes: Disulfide-linked heterodimer

How the values were obtained:
[1] = target: B2; assay: immunoprecipitation and competitive ELISA
Protocol: We developed a competitive ELISA to further examine the ability of the deletion protein mutants (i.e., Δ9, Δ8,9 and 1-250 mutant) to compete (i.e., interfere) the binding of IL-23 cytokine to the full-length extracellular domain of IL-23Rα (See, “Materials & Methods”). Recombinant IL-23Rα-Fc fusion protein from R&D (2 μg/ml) was coated on the ELISA plate. IL-23 cytokine (50 ng) was added in the absence or presence of the deletion protein mutants as competitors.
Recombinant human IL-23R-Fc (2 μg/ml) (from R&D) was coated onto plates as a capture reagent. Biotinylated anti-p40 antibody (1:250) (which specifically recognizes the p40 subunit of IL-23) was used as a detection antibody. Streptavidin—horseradish peroxidase (HRP) (1:500) was added to detect the biotinlyated anti-p40 antibody. The peroxidase activity (representing the level of IL-23 captured onto plates) was measured by addition of a tetramethylbenzidine (TMB) substrate (100 μl/well). The color intensity was directly proportion to the amount of the bound IL-23 protein. The color was measured at optical density (OD) 450 nm using a microtiter plate reader.

[2] = target: T1, recombinant human His-tagged soluble IL-12Rβ1 (human, UniProt P42701 24-545, limits assumed); assay: anti-Flag immunoprecipitation of Δ9 with IL-23 (200 ng) and sIL-12Rβ1 (1 µg); IL-23 bound to Δ9
T1 construct: Bought (R&D Systems); also called sIL-12Rβ1; shIL-12Rβ1; not shown: His tag
Protocol: Human IL12Rβ1 also partners with human IL12Rβ2 to form the cell-surface IL-12 receptor. We wanted to know whether Δ9 could link to human IL-12Rβ1 via IL-23, or indeed bind it directly.
(§1) Culture medium from Δ9 transfection experiments was concentrated using Amicon ultra centrifugal filter 30K (Millipore), then Δ9 protein was affinity purified using anti-FLAG M2 affinity gel (Sigma). The immuno-complex was precipitated, washed and resuspended in PBS. 200 ng of either IL-12 or IL-23 was added to the suspension and incubated at 4° C. for 2 hours. Reprecipitated FLAG-tagged Δ9 immuno-complex was again precipitated and eluted with excess FLAG peptide. The eluted product was analysed by immunoblot using anti-human p40 or anti-human IL-23R to detect the common p40 subunit of IL-12/IL-23 or Δ9, respectively. […] After extensive washing, the eluted product was analysed using anti-HIS (Invitrogen, Carlsbad Calif.), anti-human p40 or anti-human IL-23R(R&D Systems) to detect soluble IL-12Rβ1, the p40 subunit of IL-23 or Δ9, respectively. To examine the N-glycosylation modification on soluble human IL-23Rα, purified Δ9 was treated with N-Glycosidase F (PNGase F) at 37° C. for 1 hour followed by immunoblotting using anti-human IL-23R. […] Immuno-precipitation was performed and analysed by immunoblot, probing with anti-hIL-12/23p40.

[3] = target: B2; assay: anti-Flag immunoprecipitation, anti-p40 immunoblot
Protocol: 200 ng of human IL-23 cytokine was added to the immunoprecipitation reaction. The presence of IL-23 in the precipitate was examined by immunoblot using anti-hIL-12/23 p40 antibody.
In addition, we also prepared two (2) more IL-23Rα deletion mutants; namely, 1-250 mutant and 1-200 mutant. These deletion mutants were generated by PCR (See, FIG. 18). Together, all of the four (4) IL-23Rα protein variants (FIG. 18) were tagged with Flag sequence at the C-terminus. […] The culture media were collected 48 hours post-transfection. These four (4) deletion proteins were immunoprecipitated using anti-Flag affinity gel. 200 ng of IL-23 cytokine was added to the immunoprecipitation assay. […] We speculate that the 1-200 mutant may be improperly folded or missing a critical domain that is essential for binding to IL-23 cytokine. […]
Culture medium from Δ9 transfection experiments was concentrated using Amicon ultra centrifugal filter 30K (Millipore), then Δ9 protein was affinity purified using anti-FLAG M2 affinity gel (Sigma). […] The eluted product was analysed by immunoblot using anti-human p40 or anti-human IL-23R to detect the common p40 subunit of IL-12/IL-23 or Δ9, respectively. […] After extensive washing, the eluted product was analysed using anti-HIS (Invitrogen, Carlsbad Calif.), anti-human p40 or anti-human IL-23R(R&D Systems) to detect soluble IL-12Rβ1, the p40 subunit of IL-23 or Δ9, respectively.

[4] = target: T2, recombinant IL-12 (p35 + p40) (UniProt P29459 23-219; P29460 23-328); assay: anti-Flag immunoprecipitation, anti-hIL-12/23 p40 immunoblot
T2 sequence (looked up) 1: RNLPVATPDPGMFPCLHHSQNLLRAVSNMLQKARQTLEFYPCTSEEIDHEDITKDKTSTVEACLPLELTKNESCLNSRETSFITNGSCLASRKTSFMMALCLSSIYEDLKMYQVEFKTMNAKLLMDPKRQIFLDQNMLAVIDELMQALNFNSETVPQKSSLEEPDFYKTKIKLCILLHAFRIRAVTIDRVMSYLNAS
T2 sequence (looked up) 2: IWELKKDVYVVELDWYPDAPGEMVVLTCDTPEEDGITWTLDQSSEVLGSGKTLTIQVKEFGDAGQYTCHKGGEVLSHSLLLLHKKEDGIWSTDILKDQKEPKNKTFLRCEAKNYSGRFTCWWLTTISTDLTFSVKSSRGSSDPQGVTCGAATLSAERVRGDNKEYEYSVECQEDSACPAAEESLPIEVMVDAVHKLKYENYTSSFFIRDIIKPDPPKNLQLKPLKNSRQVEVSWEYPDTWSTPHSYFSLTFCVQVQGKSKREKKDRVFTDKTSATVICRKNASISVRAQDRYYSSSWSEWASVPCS
Protocol: FIG. 17 depicts the binding specificity of the recombinant Δ9 protein. Immunoprecipitation experiments were performed using anti-Flag M2 affinity gel. Immunoblot experiment was performed to detect IL-12 and IL-23 in the precipitates using the anti-hIL-12/23 p40 (i.e., anti-human IL-12/23 p40). The recombinant Δ9 protein in the precipitates was detected by anti-human IL-23R. Only IL-23 but not IL-12 was detected in the reaction containing the recombinant Δ9 protein.
as §1, with “Reprecipitated FLAG-tagged Δ9 immuno-complex was again precipitated and eluted with excess FLAG peptide.” left out, “respectively.” for “respectively. To examine the N-glycosylation modification on soluble human IL-23Rα, purified Δ9 was treated with N-Glycosidase F (PNGase F) at 37° C. for 1 hour followed by immunoblotting using anti-human IL-23R.”

[5] = target: T1, recombinant human His-tagged soluble …; assay: anti-Flag immunoprecipitation without IL-23, anti-His immunoblot
Source text: On the cell surface, human IL-23Rα combines with human IL-12Rβ1 to form the heterodimeric IL-23 receptor. Human IL12Rβ1 also partners with human IL12Rβ2 to form the cell-surface IL-12 receptor. We wanted to know whether Δ9 could link to human IL-12Rβ1 via IL-23, or indeed bind it directly.
as §1, with “respectively.” for “respectively. To examine the N-glycosylation modification on soluble human IL-23Rα, purified Δ9 was treated with N-Glycosidase F (PNGase F) at 37° C. for 1 hour followed by immunoblotting using anti-human IL-23R.”

binding result [1]: binds
B1: recombinant Δ8,9 protein (soluble truncated human IL-23Rα, exon 8 and 9 deletion splice variant), C-terminal Flag tag (receptor)
chain: GITNINCSGHIWVEPATIFKMGMNISIYCQAAIKNCQPRKLHFYKNGIKERFQITRINKTTARLWYKNFLEPHASMYCTAECPKHFQETLICGKDISSGYPPDIPDEVTCVIYEYSGNMTCTWNAGKLTYIDTKYVVHVKSLETEEEQQYLTSSYINISTDSLQGGKKYLVWVQAANALGMEESKQLQIHLDDIVIPSAAVISRAETINATVPKTIIYWDSQTTIEKVSCEMRYKATTNQTWNVKEFDTNFTYVQQSEFYLEPNIKYVFQVRCQETGKRYWQPWSSLFFHKTPETGLKEGSYC
notes: not shown: C-terminal Flag tag

Binder: B2
binding result [2]: binds

binding result [3]: binds
binding result [4]: no binding (tested: 200 ng)
binding result [5]: no binding (tested: 1 µg)
B3: recombinant Δ9 protein (soluble truncated human IL-23Rα, exon 9 deletion splice variant), C-terminal Flag tag (receptor)
chain: GITNINCSGHIWVEPATIFKMGMNISIYCQAAIKNCQPRKLHFYKNGIKERFQITRINKTTARLWYKNFLEPHASMYCTAECPKHFQETLICGKDISSGYPPDIPDEVTCVIYEYSGNMTCTWNAGKLTYIDTKYVVHVKSLETEEEQQYLTSSYINISTDSLQGGKKYLVWVQAANALGMEESKQLQIHLDDIVIPSAAVISRAETINATVPKTIIYWDSQTTIEKVSCEMRYKATTNQTWNVKEFDTNFTYVQQSEFYLEPNIKYVFQVRCQETGKRYWQPWSSLFFHKTPETVPQVTSKAFQHDTWNSGLTVASISTGHLTSGLKEGSYC
modifications: N-glycosylated (sites not given)
notes: Said to be a monomer; also called Δ9 variant; Δ9 IL-23Rα; not shown: C-terminal Flag tag
